# In US20240010720A1 (IOMX THERAPEUTICS, published 2024):
# T1: IGSF11 ECD fused to murine-Fc (human; mouse, UniProt Q5DX21 23-241)
# T1 construct: also called Fc-fusion IGSF11 ECD; full-length ECD of IGSF11; not shown: murine Fc
# T1 sequence: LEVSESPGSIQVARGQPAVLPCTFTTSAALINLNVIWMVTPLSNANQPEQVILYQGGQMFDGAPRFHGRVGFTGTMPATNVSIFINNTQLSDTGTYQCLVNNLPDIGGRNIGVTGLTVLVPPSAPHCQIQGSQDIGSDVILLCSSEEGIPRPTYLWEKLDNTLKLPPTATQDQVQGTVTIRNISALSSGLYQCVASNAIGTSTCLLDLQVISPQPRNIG
# T2: His-tagged extracellular domain (ECD) of human IGSF11 (VSIG3) (human, UniProt Q5DX21 23-241)
# T2 construct: partly bought (SinoBiological 13094-H08H); also called IGSF11-HIS; HIS-IGSF11; not shown: HIS6 tag
# T2 sequence: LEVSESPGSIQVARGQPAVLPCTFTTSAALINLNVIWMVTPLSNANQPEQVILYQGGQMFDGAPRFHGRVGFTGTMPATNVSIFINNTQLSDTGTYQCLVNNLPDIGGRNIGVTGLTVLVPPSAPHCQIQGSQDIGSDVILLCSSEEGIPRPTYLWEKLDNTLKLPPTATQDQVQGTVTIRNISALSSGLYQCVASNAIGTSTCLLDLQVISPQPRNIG
# T3: human IGSF11 (VSIG3) on cells (human, UniProt Q5DX21 23-431)
# T3 sequence: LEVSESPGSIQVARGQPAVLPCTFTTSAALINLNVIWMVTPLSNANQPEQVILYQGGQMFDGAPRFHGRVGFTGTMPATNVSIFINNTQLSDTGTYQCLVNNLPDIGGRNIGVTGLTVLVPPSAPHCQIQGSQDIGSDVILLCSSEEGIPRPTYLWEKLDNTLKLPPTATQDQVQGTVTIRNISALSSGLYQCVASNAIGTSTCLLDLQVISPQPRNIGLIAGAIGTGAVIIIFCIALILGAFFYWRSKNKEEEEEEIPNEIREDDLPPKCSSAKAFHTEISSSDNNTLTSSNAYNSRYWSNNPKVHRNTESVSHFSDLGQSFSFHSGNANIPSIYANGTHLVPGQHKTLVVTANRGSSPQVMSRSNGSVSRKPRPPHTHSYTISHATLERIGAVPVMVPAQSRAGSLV
# T4: recombinant murine IGSF11 extracellular domain (ECD) (mouse, UniProt P0C673 23-240, biotinylated)
# T4 construct: also called Mouse IGSF11; murine ECD-IGSF11
# T4 sequence: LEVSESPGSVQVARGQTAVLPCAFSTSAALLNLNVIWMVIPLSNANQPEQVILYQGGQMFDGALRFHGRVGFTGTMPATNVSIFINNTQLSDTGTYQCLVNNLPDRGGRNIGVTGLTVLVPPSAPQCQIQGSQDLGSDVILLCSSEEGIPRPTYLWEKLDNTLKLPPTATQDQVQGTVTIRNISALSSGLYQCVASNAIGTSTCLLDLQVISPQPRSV
# T5: recombinant cynomolgus monkey IGSF11 extracellular domain (ECD) (cynomolgus monkey, UniProt Q5DX21 23-241 (human entry), biotinylated)
# T5 chain: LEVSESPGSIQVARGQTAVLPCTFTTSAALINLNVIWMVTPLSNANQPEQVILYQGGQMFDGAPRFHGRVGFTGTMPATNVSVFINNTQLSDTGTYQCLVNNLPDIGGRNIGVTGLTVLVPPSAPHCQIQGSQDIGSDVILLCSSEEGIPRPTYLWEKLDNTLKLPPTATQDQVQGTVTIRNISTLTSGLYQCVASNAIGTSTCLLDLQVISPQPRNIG
# T6: recombinant human IGSF11 (VSIG3) extracellular domain (ECD) (human, UniProt Q5DX21 23-241, biotinylated where captured on streptavidin)
# T6 construct: also called biotinylated recombinant ECD-IGSF11; IGSF11 (ECD domain)
# T6 sequence: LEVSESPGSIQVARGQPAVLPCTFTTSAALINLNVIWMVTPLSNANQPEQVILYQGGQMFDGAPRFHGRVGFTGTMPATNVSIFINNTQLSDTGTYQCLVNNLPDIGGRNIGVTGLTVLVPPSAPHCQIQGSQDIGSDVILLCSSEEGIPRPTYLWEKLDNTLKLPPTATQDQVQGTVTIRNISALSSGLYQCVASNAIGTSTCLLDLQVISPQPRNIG
# B1: A-027 (IgG1 format) (antibody, V domains shown)
# VH: QVQLVQSGAEVKKPGSSVKVSCKASGGTFSSYAISWVRQAPGQGLEWMGGIIPIFGTANYAQKFQGRVTITADKSTSTAYMELSSLRSEDTAVYYCARARGSTWGYFDYWGQGTLVTVSS
# VL: EIVLTQSPASLSLSPGERVTLSCRASQSVSNYLAWYQQKPGQAPRLLIYDASNRATGIPARFSGSGSGTDFTLTISSLEPEDFAVYYCQQRDNWPLTFGGGTKVEIK
# notes: human IgG1 format
# B2: C-010 (Fab format) (Fab, V domains shown)
# VH: QVQLVQSGAEVKKPGSSVKVSCKASGGTFSSYAISWVRQAPGQGLEWMGGIIPIFGTANYAQKFQGRVTITADESTSTAYMELSSLRSEDTAVYYCARGYGEYYPAFDVWGQGTLVTVSS
# VL: SYELTQPPSVSVSPGQTASITCSGDKLGDKYASWYQQKPGQSPVLVIYQDSKRPSGIPERFSGSNSGNTATLTISGTQAEDEADYYCASYAHTHSTWVFGGGTKLTVL
# notes: Fab in E. coli lysate
# B3: A-004 (IgG1 format) (antibody, V domains shown)
# VH: EVQLVESGGGLVKPGGSLRLSCAASGFTFSSYSMNWVRQAPGKGLEWVSSISSSSSYIYYADSVKGRFTISRDNAKNSLYLQMNSLRAEDTAVYYCARGQLLWFGESALIDAFDIWGQGTMVTVSS
# VL: EIVLTQSPSSLSASVGDRVTITCRASQSISSYLNWYQLKPGKAPKLLIYAASILQSGVPSRFSGSGSGTDFTLTISSLQPEDFAAYYCQQSYSTPRTFGQGTKLEIK
# notes: human IgG1 format
# B4: A-022 (IgG1 format) (antibody, V domains shown)
# VH: EVQLLESGPGLVKPSQTLSLTCTVSGGSISSGGYYWSWIRQHPGKGLEWIGYIYYSGSTYYNPSLKSRVTISVDTSKNQFSLKLSSVTAADTAVYYCARASRSTDYYFDYWGQGTLVTVSS
# VL: QPGLTQPPSMSYGLGQTATLTCTGNRNNIGDQGAAWLQQHQGHPPKLLSYRNNNGPSGISERLSASRSGNTASLTISGLQPEDEADYYCSAWDSSLRAWVFGGGTKLTVL
# notes: human IgG1 format
# B5: A-035 (IgG1 format) (antibody, V domains shown)
# VH: QVQLVQSGAEVKKPGASVKVSCKASGYTFTGYYMHWVRQAPGQGLEWMGWINPNSGNTGYAQKFQGRVTMTRNTSISTAYMELSSLRSEDTAVYYCARGRLERGYWYFDLWGRGTLVTVSS
# VL: NFMLTQPHSVSESPGRTVTISCTRSSGSITSNYVQWYQQRPGSAPTILIYEDKERPSEVPDRFSGSIDISSNSASLTISGLKTEDEADYYCQSYGGTSQGVLFGGGTKVTVL
# notes: human IgG1 format
# B6: A-007 (IgG1 format) (antibody, V domains shown)
# VH: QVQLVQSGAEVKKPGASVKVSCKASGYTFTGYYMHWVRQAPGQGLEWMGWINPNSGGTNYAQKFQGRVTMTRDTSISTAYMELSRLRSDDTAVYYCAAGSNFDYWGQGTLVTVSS
# VL: QSALTQPASVSGSPGQSITIACTGSSSDIGSFSYVSWYQQRPGKAPTLIIYGVNNRPLGVSRRFSGSKSGNTASLSISGLQAEDEADYYCSSYTRRSTVIFGGGTKLTVL
# notes: human IgG1 format
# B7: A-015 (IgG1 format) (antibody, V domains shown)
# VH: not shown
# VL: QPVLTQSPSASASLGASVKLTCTLSSGHTNYAIAWRQQQPGKAPRYLMLLNSDGSHTRGGGIPDRFSGSSSGAERYLTISSLQSEDEADYYCMIWHNNAWVFGGGTKLAVL
# notes: human IgG1 format
# B8: A-034 (IgG1 format) (antibody, V domains shown)
# VH: QMQLVQSGGGLVKPGGSLRLSCAASGFTFSSYTMNWVRQAPGKGLEWVSSISSIGTYIYYADSVKGRFTISRDNAKNSLYLQMNSLRAEDTAVYYCARVLLSGSYYGYFDSWGQGTLVTVSS
# VL: QSVLTQPPSVSGAPGQRVTISCTGSSSNIGAGYDVHWYQQLPGTAPKLFIYGNSNRPSGVPDRFSGSKSGTSASLAITGLQAEDEADYYCQSYDSSLSGYVFGTGTKVTVL
# notes: human IgG1 format
# B9: A-013 (IgG1 format) (antibody, V domains shown)
# VH: EVQLVESGGGLIQPGGSLRLSCAASGFTVSSNYMSWVRQAPGKGLEWVSVIYSGGSTYYADSVKGRFTISRDNSKNTLYLQMNSLRAEDTAVYYCARGNPYYYGDLQVNFDYWGQGTLVTVSS
# VL: QAVVTQEPSLTVSPGGTVTLTCASSTGAVTSAYYPNWFQQKPGQAPRALIYSTSNKHSWTPARFSGSLLGGKAALTLSGVQPEDEADYYCLLYYGGAWVFGGGTKLTVL
# notes: human IgG1 format
# B10: C-006 (Fab format) (Fab, V domains shown)
# VH: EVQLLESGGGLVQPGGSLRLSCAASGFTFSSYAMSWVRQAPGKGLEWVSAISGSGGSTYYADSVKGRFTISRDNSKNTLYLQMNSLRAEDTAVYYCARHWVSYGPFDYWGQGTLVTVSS
# VL: DIQMTQSPSSLSASVGDRVTITCRASQSISSYLNWYQQKPGKAPKLLIYAASSLQSGVPSRFSGSGSGTDFTLTISSLQPEDFATYYCQQSHQSPPITFGQGTKVEIK
# notes: Fab in E. coli lysate
# B11: C-012 (Fab format) (Fab, V domains shown)
# VH: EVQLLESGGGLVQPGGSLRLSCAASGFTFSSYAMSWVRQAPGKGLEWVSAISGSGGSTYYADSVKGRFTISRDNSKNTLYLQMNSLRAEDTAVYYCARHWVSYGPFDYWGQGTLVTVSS
# VL: DIQMTQSPSSLSASVGDRVTITCRASQSISSYLNWYQQKPGKAPKLLIYAASSLQSGVPSRFSGSGSGTDFTLTISSLQPEDFATYYCQQSHQSPPITFGQGTKVEIK
# notes: Fab in E. coli lysate
# Columns and labels:
# [1] = molecular target: T1, IGSF11 ECD fused to murine-Fc; assay: ELISA, IgG
# From the text: Expi293 cells (ThermoFisher) were transiently transfected with DNA sequences encoding the applicable IGSF11 domain-mFc fusions according to the manufacturer's instructions, and cultured under conditions suitable to the IGSF11 domain fusion. Cell supernatants were harvested 5 days post transfection and the expressed Fc-protein purified via Protein A affinity chromatography (GE Healthcare). IGSF11 domain Fc-fusion proteins were re-buffered into PBS pH7.4. […] The surface was blocked with 2% (w/v) skim milk powder in PBST. After three wash cycles with PBST, a dilution series of IgG-format ABPs was transferred to the immobilized the Fc-fusion IGSF11 ECD or the IGSF11 domains and incubated for 1 h. After removing all unbound antibodies by 3 wash cycles with PBST, bound IgG ABPs were detected with a goat anti-human IgG antibody conjugated with horseradish peroxidase. After three wash cycles with PBST the ELISA was developed with TMB substrate.
# [2] = molecular target: T2, His-tagged extracellular domain (ECD) …; assay: ELISA EC50 grade, IgG1
# [3] = molecular target: T3, human IGSF11 (VSIG3) on cells; assay: FACS, HEK cells expressing IGSF11
# [4] = molecular target: T3, human IGSF11 (VSIG3) on cells; assay: FACS, IgG1-format antibodies; DMS 273 cells (D) treated with IGSF11 siRNA (KD)
# [5] = molecular target: T3, human IGSF11 (VSIG3) on cells; assay: FACS, IgG1-format antibodies; M579-A2-luc cells (M) treated with IGSF11 siRNA (KD)
# [6] = molecular target: T3, human IGSF11 (VSIG3) on cells; assay: FACS, IgG1-format antibodies; DMS 273 cells (D) treated with scrambled control siRNA (SC)
# [7] = molecular target: T3, human IGSF11 (VSIG3) on cells; assay: FACS, IgG1-format antibodies; M579-A2-luc cells (M) treated with scrambled control siRNA (SC)
# [8] = molecular target: T3, human IGSF11 (VSIG3) on cells; assay: FACS, IgG1-format antibodies; CL-11 cells (C), a line that does not express IGSF11 (specificity control), IGSF11 siRNA (KD)
# [9] = molecular target: T3, human IGSF11 (VSIG3) on cells; assay: FACS, IgG1-format antibodies; CL-11 cells (C), a line that does not express IGSF11 (specificity control), scrambled control siRNA (SC)
# [10] = molecular target: T4, recombinant murine IGSF11 extracellular …; assay: ELISA, Fab
# Method: (§1) In order to identify IGSF11-specific binding ABPs, monoclonal Fabs expressed from E. coli were generated from the enriched set of anti-IGFS11 antibody-expressing phage. After bacterial lysis, the Fabs were tested for their binding properties and cross-reactivity profile on recombinant ECD-IGSF11 (human, mouse and cynomolgus monkey) by standard ELISA. Briefly, biotinylated recombinant ECD-IGSF11 from human, mouse, or cynomolgus monkey were immobilized at 2 ug/mL on a streptavidin-coated 384-well Maxisorp plate. The surface was blocked with 2% (w/v) skim milk powder in PBST. After three wash cycles with PBST, a bacterial lysate of each of the anti-IGSF11 Fabs in 2% (w/v) skim milk powder was applied to the immobilized IGSF11 and incubated for 1 h. After removing all unbound Fab by 3 wash cycles with PBST, bound Fab antibodies were detected with a goat anti-human Fab antibody conjugated with horseradish peroxidase. After three wash cycles with PBST the ELISA was developed with TMB substrate.
# [11] = molecular target: T5, recombinant cynomolgus monkey IGSF11 …; assay: ELISA, Fab
# Method: as §1
# Streptavidin = molecular target: T7, Streptavidin (UniProt P22629 37-163, limits assumed); assay: ELISA, Fab
# T7 construct: also called negative antigen; irrelevant antigen
# T7 sequence (P22629 37-163 limits assumed): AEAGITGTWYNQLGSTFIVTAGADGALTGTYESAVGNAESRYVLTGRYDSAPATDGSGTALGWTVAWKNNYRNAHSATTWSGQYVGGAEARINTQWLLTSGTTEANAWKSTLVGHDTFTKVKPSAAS
# Method: as §1
# [12] = molecular target: T6, recombinant human IGSF11 (VSIG3) …; assay: SPR, IgG1
# [13] = molecular target: T3, human IGSF11 (VSIG3) on cells; assay: FACS, DMS 273 cells
binder,measurement,setting,value
B1,EC50,[1],1 to 20 nM
same,EC50,[2],> 1 nM
same,EC50,[3],> 50 nM
same,percentage binding (FACS heat-map),[4],2.63%
same,percentage binding (FACS heat-map),[5],2.5%
same,percentage binding (FACS heat-map),[6],14.3%
same,percentage binding (FACS heat-map),[7],3.32%
same,percentage binding (FACS heat-map),[8],4.75%
same,percentage binding (FACS heat-map),[9],3.08%
B2,A450,[10],< 1
same,A450,[11],< 1
same,A450,Streptavidin,< 0.1
B3,Kd,[12],100 to 250 nM
same,EC50,[1],1 to 20 nM
same,EC50,[2],< 0.02 nM
B4,EC50,[1],< 1 nM
same,EC50,[13],10 to 50 nM
same,EC50,[2],< 0.02 nM
same,EC50,[3],10 to 50 nM
B5,EC50,[1],1 to 20 nM
same,EC50,[2],0.02 to 0.05 nM
same,EC50,[3],> 50 nM
B6,EC50,[13],< 10 nM
same,EC50,[2],< 0.02 nM
same,EC50,[3],< 10 nM
same,percentage binding (FACS heat-map),[4],34.2%
same,percentage binding (FACS heat-map),[5],9.15%
same,percentage binding (FACS heat-map),[6],82.3%
same,percentage binding (FACS heat-map),[7],65.6%
same,percentage binding (FACS heat-map),[8],13.2%
same,percentage binding (FACS heat-map),[9],8.88%
B7,percentage binding (FACS heat-map),[4],1.6%
same,percentage binding (FACS heat-map),[5],1.3%
same,percentage binding (FACS heat-map),[6],5.97%
same,percentage binding (FACS heat-map),[7],1.17%
same,percentage binding (FACS heat-map),[8],2.91%
same,percentage binding (FACS heat-map),[9],1.95%
B8,Kd,[12],250 to 500 nM
same,EC50,[2],0.05 to 1 nM
B9,Kd,[12],100 to 250 nM
same,EC50,[13],> 50 nM
same,EC50,[2],< 0.02 nM
same,EC50,[3],10 to 50 nM
B10,A450,[11],< 1
B11,A450,[11],< 1
